Our source for the Kd values is article PMC11283454.

This data set relates to hATE1 WT (human). The experiment in a line: EMSA. In general terms: Mobility shift assays separate free from complexed probe on a gel.

In turn, tRNAArg acceptor arm displayed a Kd of 1600 nM.

The term Kd denotes the free concentration of one partner at which half of the binding sites on the other are occupied at equilibrium, for simple one-to-one binding.
